The values below come from patent publication US20230391893A1 (published 2023).

This assay addresses dICB-huHF. In words: flow cytometry; LLC1 cells. A general note: In flow cytometry, cells or beads pass a laser one at a time.

As usually defined, the Kd is the free concentration of one partner at which half of the binding sites on the other are occupied at equilibrium, for simple one-to-one binding. A high value points to a looser complex.

B1: LLC1 (receptor)
chain: TIDTKRNISAEEGGSVILQCHFSSDTAEVTQVDWKQQDQLLAIYSVDLGWHVASVFSDRVVPGPSLGLTFQSLTMNDTGEYFCTYHTYPGGIYKGRIFLKVQESSDDRNGLAQFQTAPLG
B1 had a Kd of 32.3 nM.
